Laboratory results taken from patent US20240261333A1 (published 2024).

Columns and labels:
SSRP1 = molecular target: T1, SSRP1 (UniProt Q08945 2-709); assay: co-IP, anti-FLAG, N-FLAG B3GNT2 cell lysate, mass spectrometry
T1 construct: also called NP_003137.1 (+3)
Method: (§1) Cells were plated in 10-cm cell culture dishes and grown to 60-80% confluency. For each condition, two biological replicates were harvested for co-IP. Cells were washed with PBS and 4 mL of lysis buffer (20 mM HEPES, 1% Triton X-100, 150 mM NaCl, 1 mM EDTA, and 10% glycerol) containing protease inhibitor cocktail was added. Cells were scraped and lysate was incubated at 4° C. under rotary agitation for 1 h. Lysate was centrifuged at 14,000×g for 10 min at 4° C. Supernatant was transferred to a new tube and an aliquot was taken as the input. […] For Western blots, 10 μg/mL Chicken Anti-FLAG (Aves labs ET-DY100) and IgY control (R&D Systems AB-101-C) antibodies were biotinylated (Thermo Fisher Scientific 90407) and added to the respective conditions. Lysates with antibodies were incubated at 4° C. under rotary agitation overnight. For each mL of lysate, 50 μL of Pierce Protein A/G Magnetic Beads (Mass spectrometry; Thermo Fisher Scientific 88803) or Pierce Streptavidin Magnetic Beads (Western blot; Thermo Fisher Scientific 88817) was washed twice with lysis buffer. Lysates with antibodies were added to the beads and incubated at 4° C. under rotary agitation for 4 h. Beads were washed with lysis buffer 3 times and resuspended in lysis buffer for storage.
(§2) Magnetic beads were resuspended in 100 mM Tris pH 7.8, reduced, alkylated and digested with trypsin at 37° ° C. overnight. This solution was subjected to solid phase extraction to concentrate the peptides and remove unwanted reagents followed by injection onto a Shimadzu HPLC with fraction collector. Eight fractions were collected and after concentration were injected on a Waters NanoAcquity HPLC equipped with a self-packed Aeris 3 μm C18 analytical column 0.075 mm by 20 cm, (Phenomenex). Peptides were eluted using standard reverse-phase gradients. The effluent from the column was analyzed using a Thermo Orbitrap Elite mass spectrometer (nanospray configuration) operated in a data dependent manner for 54 minutes. The resulting fragmentation spectra were correlated against the known database using Proteome Discover 1.4 (Thermo Fisher Scientific).

RPS2 = RPS2 (UniProt P15880 2-293); assay: as above
Method: as §1, §2

CFL1 = molecular target: T2, CFL1 (UniProt P23528 2-166); assay: as above
T2 construct: also called NP_005498.1
Method: as §1, §2

LIMA1 = molecular target: T3, LIMA1 (UniProt Q9UHB6-4 1-760, limits assumed); assay: as above
T3 construct: also called NP_001107018.1 (+1)
Method: as §1, §2

TXN = molecular target: T4, TXN (UniProt P10599 2-105); assay: as above
T4 construct: also called NP_003320.2
T4 sequence (looked up): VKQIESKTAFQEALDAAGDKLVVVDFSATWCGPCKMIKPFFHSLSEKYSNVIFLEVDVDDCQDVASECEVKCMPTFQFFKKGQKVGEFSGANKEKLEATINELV
Method: as §1, §2

RPS18 = RPS18 (UniProt P62269 2-152); assay: as above
Method: as §1, §2

DEFA3 = molecular target: T5, DEFA3 (UniProt P59666 65-94, limits assumed); assay: as above
T5 construct: also called NP_005208.1 (+1)
Method: as §1, §2

SRSF1 = molecular target: T6, SRSF1 (UniProt Q07955 2-248); assay: as above
T6 construct: also called NP_008855.1
Method: as §1, §2

TNKS1BP1 = molecular target: T7, TNKS1BP1 (UniProt Q9C0C2 1-1729); assay: as above
T7 construct: also called NP_203754.2
Method: as §1, §2

RPS13 = RPS13 (UniProt P62277 2-151); assay: as above
Method: as §1, §2

SRSF3 = molecular target: T8, SRSF3 (UniProt P84103 1-164); assay: as above
T8 construct: also called NP_003008.1
T8 sequence (looked up): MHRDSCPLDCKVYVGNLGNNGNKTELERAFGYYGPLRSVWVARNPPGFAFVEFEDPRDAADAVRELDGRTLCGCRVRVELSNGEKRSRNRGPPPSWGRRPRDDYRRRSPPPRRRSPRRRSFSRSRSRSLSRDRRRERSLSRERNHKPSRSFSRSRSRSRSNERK
Method: as §1, §2

TIMP3 = molecular target: T9, TIMP3 (human, UniProt P35625 24-211); assay: co-IP with mouse anti-FLAG from lysate of cells overexpressing N-FLAG B3GNT2, then mass spectrometry
T9 construct: Identified by mass spectrometry in the co-IP; also called NP_000353.1
T9 sequence (looked up): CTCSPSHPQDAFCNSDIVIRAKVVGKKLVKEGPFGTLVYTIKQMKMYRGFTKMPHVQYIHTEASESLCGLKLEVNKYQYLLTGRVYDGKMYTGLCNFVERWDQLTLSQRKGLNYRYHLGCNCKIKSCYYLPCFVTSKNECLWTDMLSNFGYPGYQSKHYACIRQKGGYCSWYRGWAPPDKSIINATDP
Method: as §1, §2

TFAM = molecular target: T10, TFAM (human, UniProt Q00059 43-246); assay: as above
T10 construct: Identified by mass spectrometry in the co-IP; also called NP_003192.1
T10 sequence (looked up): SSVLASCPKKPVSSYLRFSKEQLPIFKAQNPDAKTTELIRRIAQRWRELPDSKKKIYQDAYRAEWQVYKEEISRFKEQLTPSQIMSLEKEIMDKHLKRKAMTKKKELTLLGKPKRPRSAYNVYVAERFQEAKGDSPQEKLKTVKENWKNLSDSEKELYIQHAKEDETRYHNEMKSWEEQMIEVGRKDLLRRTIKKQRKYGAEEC
Method: as §1, §2

T2 sequence (P23528 2-166 limits assumed): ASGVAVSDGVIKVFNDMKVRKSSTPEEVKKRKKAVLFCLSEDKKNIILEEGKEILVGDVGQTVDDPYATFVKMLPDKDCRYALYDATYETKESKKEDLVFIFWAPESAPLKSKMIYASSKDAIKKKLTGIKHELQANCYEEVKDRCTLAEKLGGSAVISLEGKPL
T6 sequence (Q07955 2-248 limits assumed): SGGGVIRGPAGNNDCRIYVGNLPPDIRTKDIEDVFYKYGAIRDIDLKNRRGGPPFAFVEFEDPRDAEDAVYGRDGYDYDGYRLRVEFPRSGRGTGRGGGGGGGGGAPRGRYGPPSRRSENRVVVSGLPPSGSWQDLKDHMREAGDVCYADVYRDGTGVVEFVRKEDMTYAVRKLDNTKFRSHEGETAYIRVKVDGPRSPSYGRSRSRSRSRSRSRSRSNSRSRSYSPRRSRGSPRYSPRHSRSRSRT
T5 sequence (P59666 65-94 limits assumed): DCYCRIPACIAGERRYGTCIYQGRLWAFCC
T3 sequence (Q9UHB6 other isoform, or with tags, fused parts or gaps limits assumed): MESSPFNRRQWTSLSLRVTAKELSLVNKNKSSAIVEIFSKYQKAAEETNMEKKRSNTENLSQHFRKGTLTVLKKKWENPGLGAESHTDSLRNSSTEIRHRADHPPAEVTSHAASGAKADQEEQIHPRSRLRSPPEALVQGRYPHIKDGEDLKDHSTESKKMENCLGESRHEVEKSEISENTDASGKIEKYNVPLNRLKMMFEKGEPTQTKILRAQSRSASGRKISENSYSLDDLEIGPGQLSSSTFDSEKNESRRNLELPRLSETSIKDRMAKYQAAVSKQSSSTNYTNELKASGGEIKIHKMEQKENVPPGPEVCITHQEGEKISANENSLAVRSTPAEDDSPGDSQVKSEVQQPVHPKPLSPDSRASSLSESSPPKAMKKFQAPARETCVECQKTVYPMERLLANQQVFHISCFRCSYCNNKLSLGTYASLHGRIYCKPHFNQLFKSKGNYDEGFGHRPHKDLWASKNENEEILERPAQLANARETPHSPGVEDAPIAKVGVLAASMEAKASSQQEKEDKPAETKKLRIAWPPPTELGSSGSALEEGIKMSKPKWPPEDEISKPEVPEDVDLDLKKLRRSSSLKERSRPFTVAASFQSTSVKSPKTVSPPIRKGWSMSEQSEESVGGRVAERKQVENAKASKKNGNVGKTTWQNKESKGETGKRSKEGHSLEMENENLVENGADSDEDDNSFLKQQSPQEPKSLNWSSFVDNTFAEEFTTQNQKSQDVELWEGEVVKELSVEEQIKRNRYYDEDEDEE
T1 sequence (Q08945 2-709 limits assumed): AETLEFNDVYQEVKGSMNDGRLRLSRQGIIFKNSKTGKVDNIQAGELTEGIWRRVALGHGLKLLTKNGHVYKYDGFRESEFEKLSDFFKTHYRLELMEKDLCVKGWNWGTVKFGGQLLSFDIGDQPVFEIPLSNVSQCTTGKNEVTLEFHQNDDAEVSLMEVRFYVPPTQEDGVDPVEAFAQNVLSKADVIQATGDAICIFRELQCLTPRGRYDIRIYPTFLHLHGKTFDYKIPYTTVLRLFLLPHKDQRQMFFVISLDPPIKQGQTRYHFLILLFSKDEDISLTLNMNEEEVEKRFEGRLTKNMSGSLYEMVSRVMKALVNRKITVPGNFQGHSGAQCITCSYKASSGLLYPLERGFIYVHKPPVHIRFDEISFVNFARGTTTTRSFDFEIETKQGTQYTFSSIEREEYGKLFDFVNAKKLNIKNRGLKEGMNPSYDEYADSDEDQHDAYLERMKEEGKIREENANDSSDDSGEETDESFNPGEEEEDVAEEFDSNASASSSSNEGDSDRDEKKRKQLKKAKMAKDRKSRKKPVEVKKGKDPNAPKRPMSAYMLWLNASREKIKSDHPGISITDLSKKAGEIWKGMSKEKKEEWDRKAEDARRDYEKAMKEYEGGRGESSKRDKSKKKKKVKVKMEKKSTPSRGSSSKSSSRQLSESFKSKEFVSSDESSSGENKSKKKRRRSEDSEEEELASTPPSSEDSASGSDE
T7 sequence (Q9C0C2 whole entry): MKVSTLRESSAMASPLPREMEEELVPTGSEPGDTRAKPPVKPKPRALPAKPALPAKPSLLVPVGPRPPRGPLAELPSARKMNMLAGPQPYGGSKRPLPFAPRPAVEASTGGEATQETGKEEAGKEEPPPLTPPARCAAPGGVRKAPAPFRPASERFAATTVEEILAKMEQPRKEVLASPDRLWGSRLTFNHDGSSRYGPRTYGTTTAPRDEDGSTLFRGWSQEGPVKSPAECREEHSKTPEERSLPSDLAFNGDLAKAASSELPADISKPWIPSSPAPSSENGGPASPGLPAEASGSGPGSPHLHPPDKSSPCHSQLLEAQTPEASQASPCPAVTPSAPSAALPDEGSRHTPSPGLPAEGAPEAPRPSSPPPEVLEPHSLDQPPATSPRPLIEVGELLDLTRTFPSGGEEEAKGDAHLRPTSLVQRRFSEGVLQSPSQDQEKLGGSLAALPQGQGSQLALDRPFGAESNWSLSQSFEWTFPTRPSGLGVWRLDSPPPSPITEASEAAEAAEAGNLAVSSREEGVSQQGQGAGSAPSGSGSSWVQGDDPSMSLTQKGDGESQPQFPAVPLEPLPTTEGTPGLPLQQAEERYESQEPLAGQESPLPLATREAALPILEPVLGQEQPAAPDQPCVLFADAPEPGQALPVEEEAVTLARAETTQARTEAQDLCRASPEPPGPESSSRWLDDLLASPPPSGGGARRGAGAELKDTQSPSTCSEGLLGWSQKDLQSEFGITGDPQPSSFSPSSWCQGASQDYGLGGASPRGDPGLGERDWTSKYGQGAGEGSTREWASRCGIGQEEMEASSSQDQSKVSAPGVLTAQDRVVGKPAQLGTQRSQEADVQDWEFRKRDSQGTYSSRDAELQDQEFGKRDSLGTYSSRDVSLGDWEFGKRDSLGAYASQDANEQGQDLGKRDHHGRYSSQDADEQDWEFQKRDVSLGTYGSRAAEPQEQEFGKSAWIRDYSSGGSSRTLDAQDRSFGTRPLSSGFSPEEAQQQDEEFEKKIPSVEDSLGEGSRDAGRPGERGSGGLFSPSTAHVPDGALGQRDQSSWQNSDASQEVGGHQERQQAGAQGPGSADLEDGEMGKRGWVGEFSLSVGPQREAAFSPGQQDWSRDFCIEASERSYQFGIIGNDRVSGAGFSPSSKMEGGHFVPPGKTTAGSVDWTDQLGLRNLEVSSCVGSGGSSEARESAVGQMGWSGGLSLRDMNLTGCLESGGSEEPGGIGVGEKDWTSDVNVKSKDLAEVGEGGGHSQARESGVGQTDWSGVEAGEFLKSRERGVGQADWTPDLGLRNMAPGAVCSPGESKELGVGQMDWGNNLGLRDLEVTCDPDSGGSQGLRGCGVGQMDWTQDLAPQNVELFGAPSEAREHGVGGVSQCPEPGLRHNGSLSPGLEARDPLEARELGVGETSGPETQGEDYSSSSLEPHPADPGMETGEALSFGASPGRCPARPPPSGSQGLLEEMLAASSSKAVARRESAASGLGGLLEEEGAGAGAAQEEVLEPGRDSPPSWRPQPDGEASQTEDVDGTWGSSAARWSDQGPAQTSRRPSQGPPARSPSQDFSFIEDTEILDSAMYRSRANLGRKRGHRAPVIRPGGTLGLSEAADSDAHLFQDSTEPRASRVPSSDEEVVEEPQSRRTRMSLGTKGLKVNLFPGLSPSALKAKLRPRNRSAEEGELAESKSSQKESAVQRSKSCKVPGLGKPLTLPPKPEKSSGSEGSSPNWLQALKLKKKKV

B1: N-terminal FLAG tagged B3GNT2 (enzyme, human, UniProt Q9NY97 1-397, looked up)
chain: MSVGRRRIKLLGILMMANVFIYFIMEVSKSSSQEKNGKGEVIIPKEKFWKISTPPEAYWNREQEKLNRQYNPILSMLTNQTGEAGRLSNISHLNYCEPDLRVTSVVTGFNNLPDRFKDFLLYLRCRNYSLLIDQPDKCAKKPFLLLAIKSLTPHFARRQAIRESWGQESNAGNQTVVRVFLLGQTPPEDNHPDLSDMLKFESEKHQDILMWNYRDTFFNLSLKEVLFLRWVSTSCPDTEFVFKGDDDVFVNTHHILNYLNSLSKTKAKDLFIGDVIHNAGPHRDKKLKYYIPEVVYSGLYPPYAGGGGFLYSGHLALRLYHITDQVHLYPIDDVYTGMCLQKLGLVPEKHKGFRTFDIEEKNKNNICSYVDLMLVHSRKPQEMIDIWSQLQSAHLKC
notes: Bait of the co-IP; pulled down with mouse anti-FLAG from cell lysate; also called N-FLAG B3GNT2; N-term FLAG; not shown: FLAG tag at the N-terminus
- co-IP mass spectrometry count (SSRP1): 0
- co-IP mass spectrometry count (RPS2): 13
- co-IP mass spectrometry count (CFL1): 5
- co-IP mass spectrometry count (LIMA1): 4
- co-IP mass spectrometry count (TXN): 3
- co-IP mass spectrometry count (RPS18): 15
- co-IP mass spectrometry count (DEFA3): 5
- co-IP mass spectrometry count (SRSF1): 4
- co-IP mass spectrometry count (TNKS1BP1): 2
- co-IP mass spectrometry count (RPS13): 3
- co-IP mass spectrometry count (SRSF3): 6

B2: N-terminal FLAG tagged B3GNT2 (enzyme, human, UniProt Q9NY97 1-397, looked up)
chain: MSVGRRRIKLLGILMMANVFIYFIMEVSKSSSQEKNGKGEVIIPKEKFWKISTPPEAYWNREQEKLNRQYNPILSMLTNQTGEAGRLSNISHLNYCEPDLRVTSVVTGFNNLPDRFKDFLLYLRCRNYSLLIDQPDKCAKKPFLLLAIKSLTPHFARRQAIRESWGQESNAGNQTVVRVFLLGQTPPEDNHPDLSDMLKFESEKHQDILMWNYRDTFFNLSLKEVLFLRWVSTSCPDTEFVFKGDDDVFVNTHHILNYLNSLSKTKAKDLFIGDVIHNAGPHRDKKLKYYIPEVVYSGLYPPYAGGGGFLYSGHLALRLYHITDQVHLYPIDDVYTGMCLQKLGLVPEKHKGFRTFDIEEKNKNNICSYVDLMLVHSRKPQEMIDIWSQLQSAHLKC
notes: FLAG-tagged ORF overexpressed in A375 cells; bait of the co-IP with mouse anti-FLAG; also called N-FLAG B3GNT2; N-term FLAG; not shown: N-terminal FLAG tag
- co-IP mass spectrometry count (N-term FLAG) (TIMP3): 0
- co-IP mass spectrometry count (N-term FLAG) (TFAM): 0
